Measurements reported in US20110251106A1 (NEXTERA, published 2011).

Biological target: T1, Streptavidin on Dynabeads MyOne-Streptavidin magnetic beads (UniProt P22629 37-163, limits assumed)
T1 construct: also called SA; SA beads
Experiment: streptavidin bead capture of virions, anti-M13 MAb-HRP detection

T1 sequence (P22629 37-163 limits assumed): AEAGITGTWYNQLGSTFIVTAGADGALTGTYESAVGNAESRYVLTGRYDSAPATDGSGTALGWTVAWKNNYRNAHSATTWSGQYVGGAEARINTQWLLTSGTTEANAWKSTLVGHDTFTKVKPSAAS

B1: wild type pVII on M13K07 wt helper phage virions (other)
chain: MEQVADFDTIYQAMIQISVVLCFALGIIAGGQR
notes: Control virion with no tag on pVII; Also used here for phagemid virions packaged with wt M13K07; also called wildtype M13K07; wt pVII
binding result: no binding
